The numbers were not newly measured in article PMC5123080, which cites them from elsewhere.

The target of this data set is UNC5B ECD (Mus musculus) (UniProt Q8K1S3).
Chain of UniProt Q8K1S3 (Q8K1S3 27-377): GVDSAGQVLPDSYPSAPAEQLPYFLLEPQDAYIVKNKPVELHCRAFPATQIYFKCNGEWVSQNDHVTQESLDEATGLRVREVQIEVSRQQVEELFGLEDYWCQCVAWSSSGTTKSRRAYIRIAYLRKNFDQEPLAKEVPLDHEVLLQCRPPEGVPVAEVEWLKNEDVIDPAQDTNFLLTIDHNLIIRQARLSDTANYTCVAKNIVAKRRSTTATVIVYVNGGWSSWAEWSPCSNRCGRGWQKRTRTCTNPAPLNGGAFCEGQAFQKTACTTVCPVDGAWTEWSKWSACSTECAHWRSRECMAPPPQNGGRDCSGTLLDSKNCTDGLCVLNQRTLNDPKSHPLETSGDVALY

Consider Robo4 ECD (from UniProt Q8C310), for which the Kd is 12 nM.

Usually Kd stands for the free concentration of one partner at which half of the binding sites on the other are occupied at equilibrium, for simple one-to-one binding.
